{"source": "paper PMC4470706", "about": "(Journal of nuclear medicine : official publication, Society …, 2015)", "key": {"in vivo": {"test": "in vivo", "design": "species or system mice", "conditions": "male, athymic nude (outbred) CrTac:NCr-Foxn1nu, mouse, iv, 11.1 MBq, total radioactivity, Activity concentration"}, "PC-3 tumor–bearing mice": {"tested_on": "PC-3 tumor–bearing mice", "conditions": "mouse, in vivo"}}, "data": [{"smiles": "CC(C)C[C@H](NC(=O)C[C@H](O)[C@H](CC(C)C)NC(=O)[C@H](Cc1c[nH]cn1)NC(=O)CNC(=O)[C@@H](NC(=O)[C@H](C)NC(=O)[C@H](Cc1c[nH]c2ccccc12)NC(=O)[C@H](CCC(N)=O)NC(=O)[C@@H](Cc1ccccc1)NC(=O)CCOCCOCCOCCOCCNC(=O)CN1CCN(CC(=O)O)CCN(CC(=O)O)CCN(CC(=O)O)CC1)C(C)C)C(N)=O", "note": "[^90Y-DOTA-AR, metal not drawn]", "values": [{"measurement": "tissue uptake at 1 h", "setting": "in vivo; PC-3 tumor", "result": "3.62 ± 0.95", "unit": "%ID/g"}, {"measurement": "tissue uptake at 4 h", "setting": "in vivo; PC-3 tumor", "result": "2.92 ± 0.57", "unit": "%ID/g"}, {"measurement": "tissue uptake at 24 h", "setting": "in vivo; PC-3 tumor", "result": "0.45 ± 0.04", "unit": "%ID/g"}, {"measurement": "tissue uptake at 48 h", "setting": "in vivo; PC-3 tumor", "result": "0.1 ± 0.05", "unit": "%ID/g"}, {"measurement": "tissue uptake at 1 h", "setting": "in vivo; kidney", "result": "1.76 ± 0.61", "unit": "%ID/g"}, {"measurement": "tissue uptake at 4 h", "setting": "in vivo; kidney", "result": "0.78 ± 0.14", "unit": "%ID/g"}, {"measurement": "tissue uptake at 24 h", "setting": "in vivo; kidney", "result": "0.17 ± 0.02", "unit": "%ID/g"}, {"measurement": "tissue uptake at 48 h", "setting": "in vivo; kidney", "result": "0.07 ± 0.01", "unit": "%ID/g"}, {"measurement": "tissue uptake at 1 h", "setting": "in vivo; liver", "result": "0.21 ± 0.05", "unit": "%ID/g"}, {"measurement": "tissue uptake at 4 h", "setting": "in vivo; liver", "result": "0.12 ± 0.06", "unit": "%ID/g"}, {"measurement": "tissue uptake at 24 h", "setting": "in vivo; liver", "result": "0.04 ± 0.01", "unit": "%ID/g"}, {"measurement": "tissue uptake at 48 h", "setting": "in vivo; liver", "result": 0.02, "unit": "%ID/g"}, {"measurement": "Radiation dose to kidney", "setting": "PC-3 tumor–bearing mice", "result": "0.06 ± 0.01", "unit": "Gy/MBq"}, {"measurement": "Radiation dose to kidney, range", "setting": "PC-3 tumor–bearing mice", "result": "0.05–0.08 Gy/MBq"}]}]}
